Results as given in patent US20040059519A1.
“And” between values parts separate entries of the source, which are not always exact repeats. Equal values may be shown once. One block for each substance: values may come before it.

Assays:
[1] = target: Human chorionic gonadotropin (human) (UniProt P01215); experiment: sandwich, MAB602 capture beads, flow cytometry; hCG 0 ng/mL
[2] = target: Human chorionic gonadotropin (human) (UniProt P01215); experiment: sandwich, MAB602 capture beads, flow cytometry; hCG 0.002 ng/mL
[3] = target: Human chorionic gonadotropin (human) (UniProt P01215); experiment: multiplex sandwich, MAB602 capture beads; hCG 125 ng/mL, no wash
[4] = target: Human chorionic gonadotropin (human) (UniProt P01215); experiment: multiplex no-wash sandwich, MAB602 beads; serum Level 3, hCG 436 mU/mL
[5] = target: Human chorionic gonadotropin (human) (UniProt P01215); experiment: multiplex sandwich, MAB602 capture beads; hCG 0 ng/mL, washed
[6] = target: Human chorionic gonadotropin (human) (UniProt P01215); experiment: multiplex sandwich, MAB602 capture beads; hCG 500 ng/mL, washed
[7] = target: Alpha fetoprotein (UniProt P02771); experiment: MAB602 capture beads, flow cytometry; AFP 1.0 ng/mL, anti-hCG probe
[8] = target: Alpha fetoprotein (UniProt P02771); experiment: MAB602 capture beads, flow cytometry; AFP 0.1 ng/mL, anti-hCG probe
[9] = target: Alpha fetoprotein (UniProt P02771); experiment: MAB602 capture beads, flow cytometry; AFP 100.0 ng/mL, anti-hCG probe
[10] = target: Human chorionic gonadotropin (human) (UniProt P01215); experiment: multiplex no-wash sandwich, MAB602 beads; serum Level 1, hCG 22.8 mU/mL
[11] = target: Alpha fetoprotein (UniProt P02771); experiment: multiplex sandwich, S10473 capture beads; AFP 125 ng/mL, washed
[12] = target: Alpha fetoprotein (UniProt P02771); experiment: multiplex sandwich, S10473 capture beads; AFP 8 ng/mL, no wash
[13] = target: Alpha fetoprotein (UniProt P02771); experiment: multiplex sandwich, S10473 capture beads; AFP 8 ng/mL, washed
[14] = target: Human chorionic gonadotropin (human) (UniProt P01215); experiment: anti-AFP capture beads, flow cytometry; hCG 1000.0 ng/mL, anti-AFP probe
[15] = target: Alpha fetoprotein (UniProt P02771); experiment: multiplex sandwich, S10473 capture beads; AFP 31 ng/mL, washed
[16] = target: Human chorionic gonadotropin (human) (UniProt P01215); experiment: anti-AFP capture beads, flow cytometry; hCG 0.0 ng/mL, anti-AFP probe
[17] = target: Alpha fetoprotein (UniProt P02771); experiment: multiplex sandwich, S10473 capture beads; AFP 1 ng/mL, no wash
[18] = target: Alpha fetoprotein (UniProt P02771); experiment: anti-AFP capture beads, flow cytometry; AFP 0.0 ng/mL, anti-AFP probe
[19] = target: Alpha fetoprotein (UniProt P02771); experiment: multiplex no-wash sandwich, S10473 beads; serum Level 3D, AFP 111.5 U/mL
[20] = target: Human chorionic gonadotropin (human) (UniProt P01215); experiment: anti-AFP capture beads, flow cytometry; hCG 100.0 ng/mL, anti-AFP probe
[21] = target: Alpha fetoprotein (UniProt P02771); experiment: multiplex sandwich, S10473 capture beads; AFP 1000 ng/mL, no wash
[22] = target: Human chorionic gonadotropin (human) (UniProt P01215); experiment: anti-AFP capture beads, flow cytometry; hCG 1.0 ng/mL, anti-AFP probe
[23] = target: Alpha fetoprotein (UniProt P02771); experiment: multiplex sandwich, S10473 capture beads; AFP 250 ng/mL, no wash
[24] = target: Human chorionic gonadotropin (human) (UniProt P01215); experiment: anti-AFP capture beads, flow cytometry; hCG 10.0 ng/mL, anti-AFP probe
[25] = target: Alpha fetoprotein (UniProt P02771); experiment: anti-AFP capture beads, flow cytometry; AFP 1.0 ng/mL, anti-AFP probe
[26] = target: Alpha fetoprotein (UniProt P02771); experiment: multiplex sandwich, S10473 capture beads; AFP 0.5 ng/mL, no wash
[27] = target: Alpha fetoprotein (UniProt P02771); experiment: multiplex sandwich, S10473 capture beads; AFP 16 ng/mL, washed
[28] = target: Human chorionic gonadotropin (human) (UniProt P01215); experiment: MAB602 capture beads, flow cytometry; hCG 1.0 ng/mL, anti-AFP probe
[29] = target: Neutravidin (deglycosylated avidin) (UniProt P02701); experiment: multiplex, Neutravidin bead 40/60 without peptide, flow cytometry
[30] = target: Peptide 9 …-biotin; experiment: single-analyte peptide bead, flow cytometry; MAB 384-Bodipy 15.5 ug/mL
[31] = target: Peptide 6 …-biotin; experiment: as above
[32] = target: Peptide 8 …-biotin; experiment: as above
[33] = target: Peptide 7 …-biotin; experiment: as above
[34] = target: Peptide 1 …-biotin; experiment: as above
[35] = target: Peptide 2 …-biotin; experiment: as above
[36] = target: Peptide 4 …-biotin; experiment: as above
[37] = target: Peptide 3 …-biotin; experiment: as above
[38] = target: Peptide 5 …-biotin (human); experiment: as above
[39] = target: Neutravidin (deglycosylated avidin) (UniProt P02701); experiment: single-analyte, Neutravidin bead 70/70 without peptide, flow cytometry
[40] = target: Neutravidin (deglycosylated avidin) (UniProt P02701); experiment: single-analyte, Neutravidin bead 40/70 without peptide, flow cytometry
[41] = target: Neutravidin (deglycosylated avidin) (UniProt P02701); experiment: single-analyte, Neutravidin bead 60/70 without peptide, flow cytometry

Chain of UniProt P02771 (P02771 19-609 limits assumed): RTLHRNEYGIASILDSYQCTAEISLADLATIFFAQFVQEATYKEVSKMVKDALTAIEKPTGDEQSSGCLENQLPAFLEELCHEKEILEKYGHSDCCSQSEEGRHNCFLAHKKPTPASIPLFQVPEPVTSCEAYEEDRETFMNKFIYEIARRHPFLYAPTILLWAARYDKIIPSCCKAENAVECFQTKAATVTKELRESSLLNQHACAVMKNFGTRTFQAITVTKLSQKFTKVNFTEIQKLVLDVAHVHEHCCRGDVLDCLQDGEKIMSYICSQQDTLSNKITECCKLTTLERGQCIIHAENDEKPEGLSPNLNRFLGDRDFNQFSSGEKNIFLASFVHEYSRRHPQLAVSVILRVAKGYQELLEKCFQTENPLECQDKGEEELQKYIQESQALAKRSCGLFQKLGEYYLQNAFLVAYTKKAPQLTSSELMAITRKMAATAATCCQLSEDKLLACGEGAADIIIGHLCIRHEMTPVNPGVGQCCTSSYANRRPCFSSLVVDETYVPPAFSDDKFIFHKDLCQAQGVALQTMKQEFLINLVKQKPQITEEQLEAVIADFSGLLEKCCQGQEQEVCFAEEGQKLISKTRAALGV
Chain of UniProt P01215 (P01215 25-116, chain 1 of 2, other chains not shown): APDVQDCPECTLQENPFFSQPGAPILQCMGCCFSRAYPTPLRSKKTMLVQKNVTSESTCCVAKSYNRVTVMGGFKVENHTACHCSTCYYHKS
Chain of UniProt P02701 (P02701 25-152 limits assumed): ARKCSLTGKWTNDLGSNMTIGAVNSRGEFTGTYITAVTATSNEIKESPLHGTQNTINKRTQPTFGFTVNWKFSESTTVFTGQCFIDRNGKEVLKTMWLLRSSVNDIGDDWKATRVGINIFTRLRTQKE

MIF of Fm [1]: 128 and 111
MIF of Fm [2]: 122 and 121
MIF of Fm [3]: 2070
MIF AVG [4]: 624
MIF of FL1 [4]: 631 and 601 and 640
MIF of Fm [5]: 18
MIF of Fm [6]: 3340
MIF of Fm [7]: 47
MIF of Fm [8]: 52
MIF of Fm [9]: 47
MIF AVG [10]: 25.7
MIF of FL1 [10]: 23 and 27
Substance: AB633 affinity purified polyclonal anti-hCG antibody, Bodipy FL-CASE labeled

MIF of Fm [11]: 1050
MIF of Fm [12]: 190
MIF of Fm [13]: 205
MIF of Fm [14]: 78
MIF of Fm [15]: 612
MIF of Fm [16]: 45
MIF of Fm [17]: 33
MIF of Fm [18]: 45
MIF AVG [19]: 552
MIF of FL1 [19]: 535 and 562 and 559
MIF of Fm [20]: 44
MIF of Fm [21]: 379
MIF of Fm [22]: 44
MIF of Fm [23]: 956
MIF of Fm [24]: 45
MIF of Fm [25]: 98
MIF of Fm [26]: 24
MIF of Fm [27]: 347
MIF of Fm [28]: 48
Substance: M20077 affinity purified polyclonal anti-AFP antibody, Bodipy FL-CASE labeled

MIF of Fm [29]: 26
MIF of Fm [30]: 60
MIF of Fm [31]: 43
MIF of Fm [32]: 73
MIF of Fm [33]: 42
MIF of Fm [34]: 72
MIF of Fm [35]: 57
MIF of Fm [36]: 57
MIF of Fm [37]: 47
MIF of Fm [38]: 1380
MIF of Fm [39]: 66
MIF of Fm [40]: 43
MIF of Fm [41]: 48
Substance: MAB 384, Bodipy FL-X labeled (antibody)
